These results are taken from US20170166655A1 (published 2017).

Common to all, as to test: SPR
On the technique in general: SPR reads the build-up and loss of mass on a sensor chip optically.

Experiment [1] has as its target T1, human H131 FcγRIIa, extracellular region (human, UniProt P12318 34-217).
T1 chain: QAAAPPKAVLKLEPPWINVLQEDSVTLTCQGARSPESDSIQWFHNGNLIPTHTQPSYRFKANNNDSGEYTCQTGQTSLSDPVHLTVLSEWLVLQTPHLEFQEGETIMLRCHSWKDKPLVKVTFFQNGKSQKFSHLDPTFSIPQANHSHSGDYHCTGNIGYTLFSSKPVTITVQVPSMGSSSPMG

Experiment [2] concerns the target human F158 FcγRIIIa, extracellular region (human, UniProt P08637 17-208).
Experiment [3] addresses T2, human R131 FcγRIIa, extracellular region (human, UniProt P12318 34-217).
T2 chain: T1 chain with H134R

Experiment [4] concerns the target T3, human FcγRIIb, extracellular region (human, UniProt P31994 43-217).
T3 chain: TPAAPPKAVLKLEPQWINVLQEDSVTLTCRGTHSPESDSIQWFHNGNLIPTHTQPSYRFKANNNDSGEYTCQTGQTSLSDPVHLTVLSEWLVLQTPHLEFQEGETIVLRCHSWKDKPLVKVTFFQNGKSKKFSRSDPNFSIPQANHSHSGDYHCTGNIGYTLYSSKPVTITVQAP

Experiment [5] has as its target T4, human FcγRI, extracellular region (human, UniProt P12314 16-292).
T4 chain: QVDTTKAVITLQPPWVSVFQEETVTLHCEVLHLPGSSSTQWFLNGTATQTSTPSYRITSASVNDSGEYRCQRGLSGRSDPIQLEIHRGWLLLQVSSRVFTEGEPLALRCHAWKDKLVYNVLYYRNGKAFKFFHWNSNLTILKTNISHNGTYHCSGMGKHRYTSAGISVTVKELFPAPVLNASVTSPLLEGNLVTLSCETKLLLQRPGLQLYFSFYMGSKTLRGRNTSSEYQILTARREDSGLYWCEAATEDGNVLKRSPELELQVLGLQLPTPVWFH

For experiment [6], the target named is human V158 FcγRIIIa, extracellular region (human, UniProt P08637 17-208).
Experiment [7] concerns the target T1, human H131 FcγRIIa, extracellular region.
Experiment [8] has as its target T2, human R131 FcγRIIa, extracellular region.

Substitutions are numbered along the chain they refer to. Names and notes keep the numbering of the source. Like-named read-outs stand apart in the source and are kept apart here.

human F158 FcγRIIIa, extracellular region, sequence (P08637 17-208): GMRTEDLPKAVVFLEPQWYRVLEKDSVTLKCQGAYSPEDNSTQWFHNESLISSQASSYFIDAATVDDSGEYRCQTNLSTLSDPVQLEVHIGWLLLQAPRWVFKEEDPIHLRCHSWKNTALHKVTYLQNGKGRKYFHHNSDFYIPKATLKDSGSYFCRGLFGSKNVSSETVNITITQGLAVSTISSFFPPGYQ
human V158 FcγRIIIa, extracellular region, sequence (P08637 17-208 F176V): as the sequence (P08637 17-208) above, with F160V counted along it

B1: IgG2_S239D/I332E (antibody)
chain: ASTKGPSVFPLAPCSRSTSESTAALGCLVKDYFPEPVTVSWNSGALTSGVHTFPAVLQSSGLYSLSSVVTVPSSNFGTQTYTCNVDHKPSNTKVDKTVERKCCVECPPCPAPPVAGPDVFLFPPKPKDTLMISRTPEVTCVVVDVSHEDPEVQFNWYVDGVEVHNAKTKPREEQFNSTFRVVSVLTVVHQDWLNGKEYKCKVSNKGLPAPEEKTISKTKGQPREPQVYTLPPSREEMTKNQVSLTCLVKGFYPSDIAVEWESNGQPENNYKTTPPMLDSDGSFFLYSKLTVDKSRWQQGNVFSCSVMHEALHNHYTQKSLSLSPGK
One may read the Kd as the equilibrium constant for the complex coming apart. B1: the Kd in experiment [1] was 160 nM; in experiment [2] it was 81.7 nM; in experiment [3], 128 nM; in experiment [4], 682 nM; in experiment [5], 24.2 nM; in experiment [6] it was 30.3 nM.

B2: IgG2_S239D/I332E/G327A (antibody)
chain: B1 chain with G206A
Turning to B2, the Kd in experiment [1] was determined as 122 nM; in experiment [2] it was 36.3 nM; in experiment [3], 161 nM; in experiment [4], 232 nM; in experiment [5], 13.2 nM; in experiment [6], 19.4 nM.

B3: WT IgG2 (antibody)
chain: B1 chain with D118S, E211I
On to B3, for which the Kd in experiment [7] came to 525 nM; in experiment [8], 4270 nM.

B4: IgG2 WT (antibody)
chain: B1 chain with D118S, E211I
Take B4: the Kd in experiment [1] was 525 nM; in experiment [3], 4270 nM.
